Measured values: publication PMC6648351 (Nucleic Acids Research, 2019)
Substitutions are numbered along the chain they refer to. Names and notes keep the numbering of the source.

B1: gp577 mutant D92A (enzyme, Acanthamoeba polyphaga mimivirus, UniProt A0A0G2YDL0 1-470, looked up)
chain: MAEDKIEAYNKSITRTKYFKMDDAINSPICSKTVFIIANERITKENRIGRYYTVFPSFKKFLKKRDSYPHCHEIIIDHINNKTNIAGRLVFAFDIKITDSSILKDTGLIDKNDNQPIMFNSKTLSITKIPLNFKQQIENTIIETIDQYFHDIDKTILEFIWSTSQNPNKFSKHLTVKNLYFDDWITMSKLFYKLFCKVWDNQYYWISSKDLVDSQIVRNKGSLRMVGSTKINGYPLVFDNKNHTLPDSLIRIYFRNHREKEQLVTRNNINKDIINQFLESNDDIEHHRSIDIIDRHFTKIRNPSYDPIIYQKAFEIYDAIHPNIFKMGKVNGKYLTLIRLKPHKCFLSNKFHEQENAYLYISMSDTTYKISFGCYRFCSKKKMEYLGSLIQGNLMKNSPYIDDTDGTTKKHDFNINIKFLSDSDDESINAPNNIKSLESIKSSKSKKQLKSSKSKKPIKHTKTKNIYVET
B2: gp577 mutant D213A (enzyme, Acanthamoeba polyphaga mimivirus, UniProt A0A0G2YDL0 1-470, looked up)
chain: B1 chain with A92D, D213A
B3: gp577 mutant H173A (enzyme, Acanthamoeba polyphaga mimivirus, UniProt A0A0G2YDL0 1-470, looked up)
chain: B1 chain with A92D, H173A
B4: gp577 mutant D151A (enzyme, Acanthamoeba polyphaga mimivirus, UniProt A0A0G2YDL0 1-470, looked up)
chain: B1 chain with A92D, D151A
B5: gp577 mutant D239A (enzyme, Acanthamoeba polyphaga mimivirus, UniProt A0A0G2YDL0 1-470, looked up)
chain: B1 chain with A92D, D239A

Target: the molecule itself
Experiment: SEC

| Protein | stoichiometry N |
| --- | --- |
| B1 | 2 |
| B2 | 2 |
| B3 | 2 |
| B4 | 2 |
| B5 | 2 |
